Test results taken from US20160153985A1.

Assays:
[1] = molecular target: pure human iC3b (Complement Technology, A115) (human) (UniProt P01024); assay: sandwich ELISA, capture A209 (Example 5), goat anti-C3-HRP; TABLE 6 well A4, blocker
[2] = molecular target: pure human iC3b (Complement Technology, A115) (human) (UniProt P01024); assay: sandwich ELISA, capture A209 (Example 5), goat anti-C3-HRP; TABLE 6 well A7, blocker
[3] = molecular target: pure human iC3b (Complement Technology, A115) (human) (UniProt P01024); assay: sandwich ELISA, capture A209 (Example 5), goat anti-C3-HRP; TABLE 6 well A9, blocker
[4] = molecular target: pure human iC3b (Complement Technology, A115) (human) (UniProt P01024); assay: sandwich ELISA, capture A209 (Example 5), goat anti-C3-HRP; TABLE 6 well B2, blocker
[5] = molecular target: pure human iC3b (Complement Technology, A115) (human) (UniProt P01024); assay: sandwich ELISA, capture A209 (Example 5), goat anti-C3-HRP; TABLE 6 well B3, blocker
[6] = molecular target: pure human iC3b (Complement Technology, A115) (human) (UniProt P01024); assay: sandwich ELISA, capture A209 (Example 5), goat anti-C3-HRP; TABLE 7, iC3b in blocker
[7] = molecular target: pure human iC3b (Complement Technology, A115) (human) (UniProt P01024); assay: sandwich ELISA, capture A209 (Example 5), goat anti-C3-HRP; TABLE 6 well C7, 30% vitreous
[8] = molecular target: pure human iC3b (Complement Technology, A115) (human) (UniProt P01024); assay: sandwich ELISA, capture A209 (Example 5), goat anti-C3-HRP; TABLE 6 well C8, 30% vitreous
[9] = molecular target: pure human iC3b (Complement Technology, A115) (human) (UniProt P01024); assay: sandwich ELISA, capture A209 (Example 5), goat anti-C3-HRP; TABLE 6 well D3, 30% vitreous
[10] = molecular target: pure human iC3b (Complement Technology, A115) (human) (UniProt P01024); assay: sandwich ELISA, capture A209 (Example 5), goat anti-C3-HRP; TABLE 6 well D4, 30% vitreous
[11] = molecular target: pure human iC3b (Complement Technology, A115) (human) (UniProt P01024); assay: sandwich ELISA, capture A209 (Example 5), goat anti-C3-HRP; TABLE 6 well D5, 30% vitreous
[12] = molecular target: pure human iC3b (Complement Technology, A115) (human) (UniProt P01024); assay: sandwich ELISA, capture A209 (Example 5), goat anti-C3-HRP; TABLE 6 well D6, 30% vitreous
[13] = molecular target: pure human iC3b (Complement Technology, A115) (human) (UniProt P01024); assay: sandwich ELISA, capture A209 (Example 5), goat anti-C3-HRP; TABLE 6 well D8, 30% vitreous
[14] = molecular target: pure human iC3b (Complement Technology, A115) (human) (UniProt P01024); assay: sandwich ELISA, capture A209 (Example 5), goat anti-C3-HRP; TABLE 6 well E2, 20% vitreous
[15] = molecular target: pure human iC3b (Complement Technology, A115) (human) (UniProt P01024); assay: sandwich ELISA, capture A209 (Example 5), goat anti-C3-HRP; TABLE 6 well F2, 20% vitreous
[16] = molecular target: pure human iC3b (Complement Technology, A115) (human) (UniProt P01024); assay: sandwich ELISA, capture A209 (Example 5), goat anti-C3-HRP; TABLE 6 well G2, 10% vitreous
[17] = molecular target: pure human iC3b (Complement Technology, A115) (human) (UniProt P01024); assay: sandwich ELISA, capture A209 (Example 5), goat anti-C3-HRP; TABLE 6 well G4, 10% vitreous
[18] = molecular target: pure human iC3b (Complement Technology, A115) (human) (UniProt P01024); assay: sandwich ELISA, capture A209 (Example 5), goat anti-C3-HRP; TABLE 6 well G6, 10% vitreous
[19] = molecular target: pure human iC3b (Complement Technology, A115) (human) (UniProt P01024); assay: sandwich ELISA, capture A209 (Example 5), goat anti-C3-HRP; TABLE 6 well G9, 10% vitreous
[20] = molecular target: pure human iC3b (Complement Technology, A115) (human) (UniProt P01024); assay: sandwich ELISA, capture A209 (Example 5), goat anti-C3-HRP; TABLE 6 well H3, 10% vitreous
[21] = molecular target: pure human iC3b (Complement Technology, A115) (human) (UniProt P01024); assay: sandwich ELISA, capture A209 (Example 5), goat anti-C3-HRP; TABLE 6 well H5, 10% vitreous
[22] = molecular target: pure human iC3b (Complement Technology, A115) (human) (UniProt P01024); assay: sandwich ELISA, capture A209 (Example 5), goat anti-C3-HRP; TABLE 6 well H8, 10% vitreous
[23] = molecular target: pure human iC3b (Complement Technology, A115) (human) (UniProt P01024); assay: sandwich ELISA of Example 5, iC3b concentration labeled 0.0125 in 20% human vitreous, duplicate 1
[24] = molecular target: pure human iC3b (Complement Technology, A115) (human) (UniProt P01024); assay: sandwich ELISA of Example 5, iC3b concentration labeled 0.0125 in 20% human vitreous, duplicate 2
[25] = molecular target: pure human iC3b (Complement Technology, A115) (human) (UniProt P01024); assay: sandwich ELISA of Example 5, iC3b concentration labeled 0.0125 in 20% human vitreous, mean of duplicates less background

UniProt P01024, sequence (P01024 23-667 limits assumed, chain 1 of 3): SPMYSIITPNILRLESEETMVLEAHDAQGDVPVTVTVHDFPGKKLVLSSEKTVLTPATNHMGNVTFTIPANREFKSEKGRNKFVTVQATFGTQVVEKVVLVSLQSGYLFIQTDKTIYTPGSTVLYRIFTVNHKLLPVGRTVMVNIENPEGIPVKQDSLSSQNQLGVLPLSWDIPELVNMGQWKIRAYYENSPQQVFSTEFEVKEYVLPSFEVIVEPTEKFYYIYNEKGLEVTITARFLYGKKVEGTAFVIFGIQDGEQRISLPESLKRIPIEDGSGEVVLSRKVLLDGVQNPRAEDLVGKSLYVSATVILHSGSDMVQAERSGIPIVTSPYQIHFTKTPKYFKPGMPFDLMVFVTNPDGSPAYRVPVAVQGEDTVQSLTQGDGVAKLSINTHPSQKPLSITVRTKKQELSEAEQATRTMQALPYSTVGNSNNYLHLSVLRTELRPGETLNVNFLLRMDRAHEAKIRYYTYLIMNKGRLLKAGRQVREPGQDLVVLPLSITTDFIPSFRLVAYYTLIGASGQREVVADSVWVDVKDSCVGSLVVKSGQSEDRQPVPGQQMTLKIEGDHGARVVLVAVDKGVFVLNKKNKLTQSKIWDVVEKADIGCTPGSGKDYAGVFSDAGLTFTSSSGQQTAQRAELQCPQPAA
UniProt P01024, sequence (P01024 749-1303 limits assumed, chain 2 of 3): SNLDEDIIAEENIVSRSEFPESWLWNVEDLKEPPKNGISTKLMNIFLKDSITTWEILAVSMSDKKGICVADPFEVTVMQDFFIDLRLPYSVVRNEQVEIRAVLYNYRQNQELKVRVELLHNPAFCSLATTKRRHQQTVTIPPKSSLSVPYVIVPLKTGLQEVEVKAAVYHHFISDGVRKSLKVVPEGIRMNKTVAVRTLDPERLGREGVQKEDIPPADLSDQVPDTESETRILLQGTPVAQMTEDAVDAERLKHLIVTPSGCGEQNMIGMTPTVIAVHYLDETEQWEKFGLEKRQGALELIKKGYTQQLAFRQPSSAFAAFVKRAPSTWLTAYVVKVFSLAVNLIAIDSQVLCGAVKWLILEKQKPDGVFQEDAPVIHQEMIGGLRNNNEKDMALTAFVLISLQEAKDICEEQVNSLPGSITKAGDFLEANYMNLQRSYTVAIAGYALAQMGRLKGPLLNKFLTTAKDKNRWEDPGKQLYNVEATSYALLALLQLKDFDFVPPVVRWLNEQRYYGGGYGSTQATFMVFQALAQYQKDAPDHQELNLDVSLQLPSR
UniProt P01024, sequence (P01024 1321-1663 limits assumed, chain 3 of 3): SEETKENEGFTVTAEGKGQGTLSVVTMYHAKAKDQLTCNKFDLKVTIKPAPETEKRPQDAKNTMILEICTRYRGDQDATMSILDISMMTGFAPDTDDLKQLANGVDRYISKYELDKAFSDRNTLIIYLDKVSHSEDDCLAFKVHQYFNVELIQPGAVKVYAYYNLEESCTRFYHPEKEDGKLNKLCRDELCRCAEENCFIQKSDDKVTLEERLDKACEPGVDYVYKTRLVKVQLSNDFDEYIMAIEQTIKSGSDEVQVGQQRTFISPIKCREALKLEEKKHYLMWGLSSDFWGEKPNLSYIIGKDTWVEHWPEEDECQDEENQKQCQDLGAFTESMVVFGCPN

mouse anti-iC3b antibody A209 (Quidel)
raw A450 at iC3b 0.25 ug/ml [1]: 0.169 OD
raw A450 at iC3b 0.031 ug/ml [2]: 0.053 OD
raw A450 at iC3b 0.0078 ug/ml [3]: 0.035 OD
raw A450 at iC3b 1 ug/ml [4]: 0.344 OD
raw A450 at iC3b 0.5 ug/ml [5]: 0.265 OD
A450 minus matrix average at iC3b 0.016 ug/ml [6]: 0.011 OD
A450 minus matrix average at iC3b 0.031 ug/ml [6]: 0.021 OD
A450 minus matrix average at iC3b 0.063 ug/ml [6]: 0.037 OD
A450 minus matrix average at iC3b 0.125 ug/ml [6]: 0.073 OD
A450 minus matrix average at iC3b 0.25 ug/ml [6]: 0.138 OD
A450 minus matrix average at iC3b 0.5 ug/ml [6]: 0.232 OD
A450 minus matrix average at iC3b 1 ug/ml [6]: 0.328 OD
raw A450 at iC3b 0.031 ug/ml [7]: 0.355 OD
raw A450 at iC3b 0.016 ug/ml [8]: 0.336 OD
raw A450 at iC3b 0.5 ug/ml [9]: 0.406 OD
raw A450 at iC3b 0.25 ug/ml [10]: 0.433 OD
raw A450 at iC3b 0.125 ug/ml [11]: 0.391 OD
raw A450 at iC3b 0.063 ug/ml [12]: 0.362 OD
raw A450 at iC3b 0.016 ug/ml [13]: 0.355 OD
raw A450 at iC3b 1 ug/ml [14]: 0.485 OD
raw A450 at iC3b 1 ug/ml [15]: 0.527 OD
raw A450 at iC3b 1 ug/ml [16]: 0.508 OD
raw A450 at iC3b 0.25 ug/ml [17]: 0.28 OD
raw A450 at iC3b 0.063 ug/ml [18]: 0.254 OD
raw A450 at iC3b 0.0078 ug/ml [19]: 0.229 OD
raw A450 at iC3b 0.5 ug/ml [20]: 0.316 OD
raw A450 at iC3b 0.125 ug/ml [21]: 0.3 OD
raw A450 at iC3b 0.016 ug/ml [22]: 0.237 OD
absorbance A450, raw [23]: 0.361 A450
absorbance A450, raw [24]: 0.384 A450
net absorbance A450 (matrix only value 0.328 subtracted) [25]: 0.049 A450
